{"source": "patent US20110236309A1", "key": {"[1]": {"biological_target": "TGF-β1 (Homo sapiens (Human)) (UniProt P01137)"}, "[2]": {"biological_target": "TGF-β2 (Homo sapiens (Human)) (UniProt P61812)"}, "[3]": {"biological_target": "T1, TGF-β3 (Homo sapiens (Human)) (UniProt P10600)", "T1 sequence": "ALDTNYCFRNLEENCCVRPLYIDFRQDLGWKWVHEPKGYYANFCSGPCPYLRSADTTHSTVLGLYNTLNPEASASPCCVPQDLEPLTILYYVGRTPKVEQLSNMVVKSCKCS"}}, "data": [{"substance": "pan-specific TGF-β neutralizing antibody 1D11 (R&D Systems)", "values": [{"measurement": "IC50 for TGF-β1 (neutralization, Mv1Lu luciferase reporter cells)", "setting": "[1]", "result": 1.43, "unit": "nM"}, {"measurement": "IC50 for TGF-β2 (neutralization, Mv1Lu luciferase reporter cells)", "setting": "[2]", "result": 8.67, "unit": "nM"}, {"measurement": "IC50 for TGF-β3 (neutralization, Mv1Lu luciferase reporter cells)", "setting": "[3]", "result": 0.029, "unit": "nM"}]}]}
